Our source for the Kd, Coverage(%) and Peptides values is patent US20230366033A1, “METHODS FOR TREATING CANCERS WITH INHIBITORS TARGETING THE ROLE OF GRB2 IN DNA REPAIR” (Board of Regents, The University of Texas System, priority 2020, published 2023).

The target in test [1] is GRB2-SH2 domain, purified, Atto488-labelled (UniProt P62993). Nature of the test: MST; 100 nM Atto488-labelled GRB2-SH2 domain, peptide titrated; pEGFR phosphopeptide, comparator; cited to a figure and Ahmed et al., 2015.
Test [2] concerns the target GRB2 K109R mutant, bacterially expressed and purified (UniProt P62993). The test can be described thus: MST, 100 nM Atto488-labelled K109R GRB2, peptide titrated.
The target of test [3] is Histone H2AX, endogenous, in HEK293T cell extracts (UniProt P16104). The test can be described thus: Strep-Tactin purification of Strep-GRB2 from HEK293T nuclear extracts, mass spectrometry (mean of three data sets) [panel A].
Another test addresses HERC1 (human) (UniProt Q15751). The test can be described thus: GRB2 immunoprecipitation-mass spectrometry in HEK293T cells (mean of three data sets) [panel G].
Test [4] concerns the target CBLL1 E3 ubiquitin ligase, endogenous, in HEK293T cells (UniProt Q75N03). Described as above.
The target of test [5] is RING2 E3 ubiquitin ligase, endogenous, in HEK293T cells (UniProt Q99496). Described as above.
RING2 E3 ubiquitin ligase, endogenous, in HEK293T cells, sequence (Q99496 2-336 limits assumed): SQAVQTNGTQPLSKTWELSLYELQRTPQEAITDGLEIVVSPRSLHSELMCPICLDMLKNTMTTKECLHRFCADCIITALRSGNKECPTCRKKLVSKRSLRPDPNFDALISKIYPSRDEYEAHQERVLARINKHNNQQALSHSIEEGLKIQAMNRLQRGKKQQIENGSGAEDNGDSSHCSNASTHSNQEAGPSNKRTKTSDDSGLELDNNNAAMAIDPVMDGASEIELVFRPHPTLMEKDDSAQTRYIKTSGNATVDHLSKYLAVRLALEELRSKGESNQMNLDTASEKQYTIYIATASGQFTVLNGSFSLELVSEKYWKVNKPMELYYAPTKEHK

CBLL1 E3 ubiquitin ligase, endogenous, in HEK293T cells, sequence (Q75N03 whole entry): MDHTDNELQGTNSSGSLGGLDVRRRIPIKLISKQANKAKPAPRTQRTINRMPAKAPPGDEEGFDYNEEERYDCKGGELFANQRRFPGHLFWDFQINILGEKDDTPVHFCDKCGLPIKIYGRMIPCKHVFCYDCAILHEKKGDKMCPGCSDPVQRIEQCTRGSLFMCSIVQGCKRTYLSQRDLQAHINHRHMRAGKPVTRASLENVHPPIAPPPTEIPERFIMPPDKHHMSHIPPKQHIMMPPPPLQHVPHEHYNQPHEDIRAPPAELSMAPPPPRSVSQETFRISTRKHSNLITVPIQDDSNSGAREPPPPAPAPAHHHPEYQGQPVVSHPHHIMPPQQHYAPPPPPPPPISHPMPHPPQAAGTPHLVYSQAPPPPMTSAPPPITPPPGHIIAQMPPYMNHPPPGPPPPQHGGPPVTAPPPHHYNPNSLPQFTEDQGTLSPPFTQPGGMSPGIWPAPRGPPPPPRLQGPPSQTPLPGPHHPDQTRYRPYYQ

One may read the Kd as the concentration at which binding is half-saturated. High values mean lower affinity, low ones higher affinity. Turning to “Phosphorylated EGFR synthetic peptide FLPVPE(pY)INQSVPKR”, the equilibrium dissociation constant (Kd) in test [1] worked out at 7.2 µM; in test [2], 2.6 µM.

In the case of “Strep-tagged wild-type GRB2 expressed in cells (HEK293T; reconstituted GRB2-KO cells) (from UniProt P62993 1-217)”, the Coverage(%) in test [3] turned out to be 71%; in the test with HERC1 (human), 0%; in test [4], 3%; in test [5] it was 15%. Besides, the Peptides was 16 peptides in test [3], 1 peptides in the test with HERC1 (human), 1 peptides in test [4] and 4 peptides in test [5].
